Legend:
MERTK = MERTK (UniProt Q12866); assay: phosphorylation enrichment, bacterial display (enrichment ratio); higher = better substrate or ligand; peptides without Tyr show the background
Fer (mouse) = assay: as above
Fyn = Fyn (UniProt P06241); assay: as above
EPHB1 = EPHB1 (UniProt P54762); assay: as above
AncSZ = assay: as above
FGFR1 = FGFR1 (UniProt P11362); assay: as above
Jak2 = Jak2 (UniProt O60674); assay: as above
c-Src = assay: as above
c-Abl (mouse) = assay: as above
Fes = Fes (UniProt P07332); assay: as above
FGFR3 = FGFR3 (UniProt P22607); assay: as above
Hck = Hck (UniProt P08631); assay: as above
EPHB2 = EPHB2 (UniProt P29323); assay: as above
SHP2-C SH2 = assay: SH2 binding enrichment of the phosphorylated peptide, bacterial display (enrichment ratio); higher = better substrate or ligand; peptides without Tyr show the background
Grb2 SH2 = Grb2 SH2 (UniProt P62993); assay: as above
c-Src SH2 = assay: as above
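For SH2 binding enrichment of the phosphorylated peptide, bacterial display in this document: peptide library displayed on the E. coli surface as eCPX fusions, selected cells deep-sequenced, score is each peptide's frequency after selection divided by its frequency in the input.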
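For phosphorylation enrichment, bacterial display in this document: 11-residue human phosphosite peptides and single-mutation variants displayed on the E. coli surface, counted by deep sequencing, each peptide's frequency after selection divided by its frequency in the unselected input library; frequency after pTyr selection over input frequency; kinase dosed for 20-30% of maximal phosphorylation in three min.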

Sequence of Hck (P08631 whole entry, looked up): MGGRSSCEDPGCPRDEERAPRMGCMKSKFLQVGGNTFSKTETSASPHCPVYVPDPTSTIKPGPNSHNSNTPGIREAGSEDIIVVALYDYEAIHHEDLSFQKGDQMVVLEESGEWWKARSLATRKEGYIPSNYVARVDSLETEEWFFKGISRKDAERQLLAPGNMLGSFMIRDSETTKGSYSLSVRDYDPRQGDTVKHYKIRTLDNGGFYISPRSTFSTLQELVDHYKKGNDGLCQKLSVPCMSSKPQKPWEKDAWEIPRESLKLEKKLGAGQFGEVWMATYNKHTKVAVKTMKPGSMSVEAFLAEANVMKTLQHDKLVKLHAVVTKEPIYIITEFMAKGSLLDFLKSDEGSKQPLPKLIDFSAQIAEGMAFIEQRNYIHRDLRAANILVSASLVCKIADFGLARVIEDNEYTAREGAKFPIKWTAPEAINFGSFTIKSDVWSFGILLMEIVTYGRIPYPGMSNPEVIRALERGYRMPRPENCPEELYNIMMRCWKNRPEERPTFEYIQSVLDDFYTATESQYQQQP
Sequence of Fyn (P06241 whole entry, looked up): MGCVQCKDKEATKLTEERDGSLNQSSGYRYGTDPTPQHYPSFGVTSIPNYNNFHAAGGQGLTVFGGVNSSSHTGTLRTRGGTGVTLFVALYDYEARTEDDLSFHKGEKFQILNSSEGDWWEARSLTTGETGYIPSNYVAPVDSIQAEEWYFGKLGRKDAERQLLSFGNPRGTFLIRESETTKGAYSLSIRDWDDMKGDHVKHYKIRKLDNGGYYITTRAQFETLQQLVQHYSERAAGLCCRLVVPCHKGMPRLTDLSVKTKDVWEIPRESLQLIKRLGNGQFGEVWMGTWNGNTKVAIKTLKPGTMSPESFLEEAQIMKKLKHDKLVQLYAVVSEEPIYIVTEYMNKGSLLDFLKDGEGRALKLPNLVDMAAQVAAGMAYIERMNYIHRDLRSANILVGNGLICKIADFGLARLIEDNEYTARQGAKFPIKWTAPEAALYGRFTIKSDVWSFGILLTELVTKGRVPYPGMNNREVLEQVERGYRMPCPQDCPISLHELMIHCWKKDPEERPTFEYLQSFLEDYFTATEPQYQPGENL
Sequence of EPHB2 (P29323 whole entry, looked up): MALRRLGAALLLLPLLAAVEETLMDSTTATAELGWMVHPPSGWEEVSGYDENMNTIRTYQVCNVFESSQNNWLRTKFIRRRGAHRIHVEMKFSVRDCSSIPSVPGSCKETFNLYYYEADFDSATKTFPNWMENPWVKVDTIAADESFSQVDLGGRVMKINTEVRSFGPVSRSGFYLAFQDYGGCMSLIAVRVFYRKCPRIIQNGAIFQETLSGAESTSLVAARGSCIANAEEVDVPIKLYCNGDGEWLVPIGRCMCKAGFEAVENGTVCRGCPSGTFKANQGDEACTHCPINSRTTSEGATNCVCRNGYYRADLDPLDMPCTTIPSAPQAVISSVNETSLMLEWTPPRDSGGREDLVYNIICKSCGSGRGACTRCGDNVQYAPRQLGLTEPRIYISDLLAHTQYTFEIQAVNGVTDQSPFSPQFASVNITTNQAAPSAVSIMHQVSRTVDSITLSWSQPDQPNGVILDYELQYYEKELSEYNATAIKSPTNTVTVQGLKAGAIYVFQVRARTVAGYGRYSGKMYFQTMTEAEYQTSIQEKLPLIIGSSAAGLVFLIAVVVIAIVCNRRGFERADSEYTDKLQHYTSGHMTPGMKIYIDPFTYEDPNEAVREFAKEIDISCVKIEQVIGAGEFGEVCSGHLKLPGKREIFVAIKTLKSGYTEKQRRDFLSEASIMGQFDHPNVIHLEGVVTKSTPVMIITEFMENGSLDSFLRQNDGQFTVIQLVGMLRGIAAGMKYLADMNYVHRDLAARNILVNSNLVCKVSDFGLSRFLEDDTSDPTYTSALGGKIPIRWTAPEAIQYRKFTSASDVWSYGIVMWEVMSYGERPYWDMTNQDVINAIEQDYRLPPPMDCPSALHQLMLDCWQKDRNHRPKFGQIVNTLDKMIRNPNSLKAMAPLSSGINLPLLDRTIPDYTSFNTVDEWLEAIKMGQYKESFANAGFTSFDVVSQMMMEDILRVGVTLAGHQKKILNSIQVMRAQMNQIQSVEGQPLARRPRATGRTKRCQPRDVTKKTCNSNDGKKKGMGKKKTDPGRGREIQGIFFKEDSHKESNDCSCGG
Sequence of MERTK (Q12866 whole entry, looked up): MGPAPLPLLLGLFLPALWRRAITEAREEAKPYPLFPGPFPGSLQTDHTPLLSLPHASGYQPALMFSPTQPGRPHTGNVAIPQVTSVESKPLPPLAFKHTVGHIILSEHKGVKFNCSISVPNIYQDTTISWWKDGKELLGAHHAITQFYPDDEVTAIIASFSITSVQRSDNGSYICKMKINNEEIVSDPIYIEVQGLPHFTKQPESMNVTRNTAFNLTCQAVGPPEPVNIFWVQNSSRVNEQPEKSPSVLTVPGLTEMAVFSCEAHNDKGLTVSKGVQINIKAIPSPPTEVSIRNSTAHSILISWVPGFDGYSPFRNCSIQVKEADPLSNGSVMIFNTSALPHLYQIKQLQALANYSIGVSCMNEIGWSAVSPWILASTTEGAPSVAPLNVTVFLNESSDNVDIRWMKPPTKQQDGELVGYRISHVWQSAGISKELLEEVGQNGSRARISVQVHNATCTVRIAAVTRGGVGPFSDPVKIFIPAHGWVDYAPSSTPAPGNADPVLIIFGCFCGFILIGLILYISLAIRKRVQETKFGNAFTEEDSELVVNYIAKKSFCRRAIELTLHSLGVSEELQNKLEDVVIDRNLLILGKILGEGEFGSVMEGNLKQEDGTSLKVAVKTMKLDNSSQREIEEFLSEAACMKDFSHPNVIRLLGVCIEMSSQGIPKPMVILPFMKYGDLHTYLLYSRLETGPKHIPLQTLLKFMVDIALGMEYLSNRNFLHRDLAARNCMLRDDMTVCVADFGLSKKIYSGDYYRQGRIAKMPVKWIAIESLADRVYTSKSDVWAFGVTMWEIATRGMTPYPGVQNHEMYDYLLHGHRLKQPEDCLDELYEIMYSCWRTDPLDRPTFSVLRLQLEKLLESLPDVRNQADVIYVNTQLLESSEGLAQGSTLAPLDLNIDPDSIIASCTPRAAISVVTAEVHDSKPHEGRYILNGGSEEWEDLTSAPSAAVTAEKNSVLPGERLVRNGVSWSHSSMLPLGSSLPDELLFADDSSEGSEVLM
Sequence of Jak2 (O60674 whole entry, looked up): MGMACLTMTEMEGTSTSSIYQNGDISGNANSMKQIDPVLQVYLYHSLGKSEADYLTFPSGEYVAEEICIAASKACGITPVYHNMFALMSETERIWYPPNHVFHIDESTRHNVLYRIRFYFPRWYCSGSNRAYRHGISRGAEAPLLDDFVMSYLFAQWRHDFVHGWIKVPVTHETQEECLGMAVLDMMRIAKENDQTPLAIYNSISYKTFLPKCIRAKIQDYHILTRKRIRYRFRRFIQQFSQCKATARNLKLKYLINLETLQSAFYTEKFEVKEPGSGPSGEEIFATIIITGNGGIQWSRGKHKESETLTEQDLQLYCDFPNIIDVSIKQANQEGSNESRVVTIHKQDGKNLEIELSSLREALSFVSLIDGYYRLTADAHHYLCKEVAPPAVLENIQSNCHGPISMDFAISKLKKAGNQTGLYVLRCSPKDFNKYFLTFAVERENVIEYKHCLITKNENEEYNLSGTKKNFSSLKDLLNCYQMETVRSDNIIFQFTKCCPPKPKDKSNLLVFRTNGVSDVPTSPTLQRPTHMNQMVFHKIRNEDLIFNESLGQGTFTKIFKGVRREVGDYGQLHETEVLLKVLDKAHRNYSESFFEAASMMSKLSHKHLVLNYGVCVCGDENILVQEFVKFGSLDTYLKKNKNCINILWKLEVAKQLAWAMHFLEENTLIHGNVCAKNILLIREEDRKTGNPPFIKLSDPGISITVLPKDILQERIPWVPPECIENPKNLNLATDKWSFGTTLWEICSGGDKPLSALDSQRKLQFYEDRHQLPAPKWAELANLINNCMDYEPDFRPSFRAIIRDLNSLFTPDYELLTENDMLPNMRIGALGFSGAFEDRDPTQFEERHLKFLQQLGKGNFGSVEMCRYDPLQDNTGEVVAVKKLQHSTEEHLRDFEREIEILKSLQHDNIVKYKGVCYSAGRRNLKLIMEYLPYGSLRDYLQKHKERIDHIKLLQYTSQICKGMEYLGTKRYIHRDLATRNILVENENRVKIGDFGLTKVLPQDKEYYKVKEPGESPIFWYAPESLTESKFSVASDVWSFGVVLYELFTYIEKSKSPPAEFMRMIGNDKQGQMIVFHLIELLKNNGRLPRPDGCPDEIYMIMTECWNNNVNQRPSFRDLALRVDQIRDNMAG
Sequence of FGFR3 (P22607 whole entry, looked up): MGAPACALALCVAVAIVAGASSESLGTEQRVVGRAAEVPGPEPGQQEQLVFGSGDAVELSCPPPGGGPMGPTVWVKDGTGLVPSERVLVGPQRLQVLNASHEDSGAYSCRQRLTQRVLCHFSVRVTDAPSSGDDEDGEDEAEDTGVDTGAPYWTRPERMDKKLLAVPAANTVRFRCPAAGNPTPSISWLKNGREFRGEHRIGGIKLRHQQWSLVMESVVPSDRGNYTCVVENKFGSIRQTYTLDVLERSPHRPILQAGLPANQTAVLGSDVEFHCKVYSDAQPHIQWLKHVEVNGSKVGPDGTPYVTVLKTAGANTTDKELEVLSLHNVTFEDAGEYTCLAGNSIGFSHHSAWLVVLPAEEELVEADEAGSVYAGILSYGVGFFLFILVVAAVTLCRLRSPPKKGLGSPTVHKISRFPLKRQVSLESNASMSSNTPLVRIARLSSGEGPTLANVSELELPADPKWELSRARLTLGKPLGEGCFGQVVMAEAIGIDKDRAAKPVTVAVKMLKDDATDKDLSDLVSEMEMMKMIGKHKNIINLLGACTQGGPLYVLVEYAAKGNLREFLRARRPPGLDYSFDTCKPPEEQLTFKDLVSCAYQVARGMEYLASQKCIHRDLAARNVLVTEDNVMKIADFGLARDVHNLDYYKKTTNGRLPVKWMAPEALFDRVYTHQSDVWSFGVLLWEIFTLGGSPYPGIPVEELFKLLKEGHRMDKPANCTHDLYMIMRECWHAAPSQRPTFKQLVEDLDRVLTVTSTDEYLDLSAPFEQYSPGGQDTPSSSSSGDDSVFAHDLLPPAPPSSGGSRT

Sequence	SH2 binding enrichment (SHP2-C SH2)	SH2 binding enrichment (Grb2 SH2)	SH2 binding enrichment (c-Src SH2)	phosphorylation enrichment (MERTK)	phosphorylation enrichment (Fer (mouse))	phosphorylation enrichment (Fyn)	phosphorylation enrichment (EPHB1)	phosphorylation enrichment (AncSZ)	phosphorylation enrichment (FGFR1)	phosphorylation enrichment (Jak2)	phosphorylation enrichment (c-Src)	phosphorylation enrichment (c-Abl (mouse))	phosphorylation enrichment (Fes)	phosphorylation enrichment (FGFR3)	phosphorylation enrichment (Hck)	phosphorylation enrichment (EPHB2)
IGRGSYAKVLL [PRKCZ_Y263]	11.5	0.996	5.41	0.452	0.375	0.384	0.363	0.611	0.348	0.458	0.34	0.468	0.545	0.394	0.419	0.367
STGWSYAGVAV [KLHL3_Y577_R575W]	0.965	0.718	0.529	0.352	0.616	0.416	0.515	0.929	0.484	0.69	0.462	0.463	0.776	0.549	0.581	0.454
FTNELYMMMRD [FGFR1_Y730_C725Y_YF]	0.661	0.844	0.604	3.53	0.752	1.1	3.18	1.37	1.54	0.938	1.29	0.57	1.24	1.53	1.99	1.69
LPKVSCVKAID [GLRA1_Y307_Y307C]	0.35	0.713	0.697	0.501	0.577	0.655	0.794	1.19	0.734	0.945	0.386	0.803	1.38	1.14	0.695	0.711
VFLARYGPAWR [CYP2D6_Y124]	0.703	0.948	0.572	0.472	0.413	0.434	0.405	1.12	0.468	0.793	0.603	0.52	1.21	0.501	0.548	0.598
AGRTGYDNREI [BCL2_Y9]	0.718	0.779	0.504	0.429	0.5	0.427	0.392	0.779	0.461	0.848	0.537	0.974	0.955	0.509	0.367	0.394
FSDPSYVKQME [CDC5L_Y464_YF]	0.892	0.883	0.518	0.407	0.452	0.532	0.476	0.867	0.558	0.704	0.411	0.471	0.939	1.36	0.505	0.581
DRFANYIEKVR [DES_Y122]	0.743	0.769	0.473	0.367	0.41	0.434	0.523	0.628	0.419	1.02	0.425	0.728	0.759	0.508	0.42	0.424
GEDEPYSEPFA [APBA1_Y183_YF]	0.914	0.936	0.593	0.493	0.512	0.588	0.485	1.34	0.603	1.02	0.598	0.598	1.06	0.68	0.599	0.523
NGVSYYINLCQ [IGF2R_Y2025]	0.488	0.717	0.466	0.417	0.548	0.449	0.787	1.19	0.525	1.38	0.374	0.916	1.38	1.04	0.581	0.548
DPLLTYWFPPK [LMNA_Y481_R482W]	0.797	1.19	0.67	9.17	0.933	6.5	12.6	2.78	8.47	5.74	6.1	11.6	1.13	6.67	7.34	14.8
FSMGCYEFSLG [HMGCL_Y198_I200F_YF]	0.976	0.923	0.498	0.964	3	0.881	1.12	2.26	0.733	1.2	1.25	1.47	1.53	1.14	0.706	0.984
SETDDYAEIID [PTK2_Y397]	0.627	1.04	0.561	0.625	0.688	0.573	0.877	1.53	0.748	1.57	0.744	1.05	1.6	1.01	0.702	0.838
GMAHNYRNRSQ [AASS_Y188_S191R]	0.392	0.703	0.48	0.466	0.358	0.487	0.414	0.599	0.344	0.488	0.481	0.57	0.629	0.401	0.523	0.388

Continued, in another order:

SH2 binding enrichment (SHP2-C SH2)	SH2 binding enrichment (Grb2 SH2)	SH2 binding enrichment (c-Src SH2)	Sequence	phosphorylation enrichment (MERTK)	phosphorylation enrichment (Fer (mouse))	phosphorylation enrichment (Fyn)	phosphorylation enrichment (EPHB1)	phosphorylation enrichment (AncSZ)	phosphorylation enrichment (FGFR1)	phosphorylation enrichment (Jak2)	phosphorylation enrichment (c-Src)	phosphorylation enrichment (c-Abl (mouse))	phosphorylation enrichment (Fes)	phosphorylation enrichment (FGFR3)	phosphorylation enrichment (Hck)	phosphorylation enrichment (EPHB2)
0.814	0.816	0.721	VQVAFYTMMMN [SPATA17_Y84_YF]	3.02	1.81	0.652	1.3	1.63	1.84	1.6	0.956	1.03	1.51	1.99	0.769	1.15
0.511	0.826	0.515	REVVNYVQKRS [RMI1_Y450_N455S]	0.68	0.525	0.581	0.459	0.981	0.65	0.468	0.564	0.519	1.01	0.835	0.484	0.35
2.31	1.37	4.11	CTTIQYNYMCN [TP53_Y234_H233Q]	0.482	0.445	0.555	0.614	0.927	0.556	0.751	0.441	0.493	0.955	0.692	0.551	0.671
1.65	1.47	0.766	PASWTYVRWFD [PTDSS1_Y274]	0.51	0.729	0.669	1.12	1.71	0.907	1.79	1.01	1.04	1.79	1.35	1.14	1.1
0.903	0.875	0.448	AEMKRYAESSS [RAI14_Y869]	0.336	0.372	0.471	0.45	0.607	0.467	0.582	0.382	0.483	0.778	0.441	0.403	0.394
0.539	0.717	0.4	ADLTEYLSTHF [UQCRC1_Y219_YF]	0.571	0.493	0.577	0.681	1.43	0.699	1.2	0.561	0.958	1.35	0.923	0.604	0.672
0.93	1.13	0.556	VSSPKYGSDDE [TMCC2_Y473]	0.464	0.553	0.556	0.559	0.968	0.46	0.926	0.619	0.992	1.01	0.713	0.429	0.505
0.617	0.966	1.3	EQAERYDDMAA [YWHAG_Y20]	0.407	0.501	0.537	0.508	1.22	0.547	0.87	0.426	0.653	1.03	0.737	0.501	0.51
0.528	0.742	0.453	EFNINYNNEPP [THG1L_Y228_L232P]	0.46	0.6	0.626	0.642	1.23	0.681	0.989	0.529	0.852	1.3	0.742	0.583	0.566
0.645	0.794	0.466	AIYWRYSKFFD [SH3PXD2B_Y45_R43W]	0.421	0.526	1.49	0.982	1.3	0.57	1.07	0.97	1.1	1.05	0.804	0.886	0.681
0.666	0.801	0.581	RRIHSYRGFLW [VHL_Y112_H115Y_YF]	0.577	0.458	0.577	0.343	0.622	0.389	0.577	0.552	0.426	0.575	0.378	0.377	1.73
0.727	0.922	0.623	DYLEKYYKFGS [NNMT_Y24]	0.494	0.369	0.436	0.33	0.631	0.486	0.791	0.636	0.458	0.768	0.553	0.402	0.436
0.599	0.795	0.546	SVVVPYKPPEV [TP53_Y220_E221K]	0.517	0.471	0.458	0.501	0.915	0.477	0.761	0.596	0.584	0.792	0.448	0.421	0.461
0.472	0.709	0.86	KVVVPYEPPEV [TP53_Y220_S215K]	0.402	0.38	0.458	0.452	0.921	0.442	1	0.408	1.02	0.866	0.632	0.406	0.573
0.751	1.19	1.14	FDFKKYGKGLR [ZNF445_Y433_YF]	0.389	0.304	0.318	0.426	0.531	0.575	0.525	0.484	0.392	0.671	0.498	0.45	0.436

From the supplement of paper PMC10065799, “High-throughput profiling of sequence recognition by tyrosine kinases and SH2 domains using bacterial peptide display” (eLife, 2023)
